This passage reports Kd results from paper PMC6874530 (2019).

B1: LXRα LBD (protein)
chain: EQLGMIEKLVAAQQQCNRRSFSDRLRVTPWPMAPDPHSREARQQRFAHFTELAIVSVQEIVDFAKQLPGFLQLSREDQIALLKTSAIEVMLLETSRRYNPGSESITFLKDFSYNREDFAKAGLQVEFINPIFEFSRAMNELQLNDAEFALLIAISIFSADRPNVQDQLQVERLQHTYVEALHAYVSIHHPHDRLMFPRMLMKLVSLRTLSSVHSEQVFALRLQDKKLPPLLSEIWDVHE
B2: LXRβ LBD (protein)
chain: AQELMIQQLVAAQLQCNKRSFSDQPKVTPWPLGADPQSRDARQQRFAHFTELAIISVQEIVDFAKQVPGFLQLGREDQIALLKASTIEIMLLETARRYNHETECITFLKDFTYSKDDFHRAGLQVEFINPIFEFSRAMRRLGLDDAEYALLIAINIFSADRPNVQEPGRVEALQQPYVEALLSYTRIKRPQDQLRFPRMLMKLVSLRTLSSVHSEQVFALRLQDKKLPPLLSEIWDVHE
B3: LXRα LBD (protein)
chain: EQLGMIEKLVAAQQQCNRRSFSDRLRVTPWPMAPDPHSREARQQRFAHFTELAIVSVQEIVDFAKQLPGFLQLSREDQIALLKTSAIEVMLLETSRRYNPGSESITFLKDFSYNREDFAKAGLQVEFINPIFEFSRAMNELQLNDAEFALLIAISIFSADRPNVQDQLQVERLQHTYVEALHAYVSIHHPHDRLMFPRMLMKLVSLRTLSSVHSEQVFALRLQDKKLPPLLSEIWDVHE
modifications: AZ6
B4: LXRα LBD (protein)
chain: EQLGMIEKLVAAQQQCNRRSFSDRLRVTPWPMAPDPHSREARQQRFAHFTELAIVSVQEIVDFAKQLPGFLQLSREDQIALLKTSAIEVMLLETSRRYNPGSESITFLKDFSYNREDFAKAGLQVEFINPIFEFSRAMNELQLNDAEFALLIAISIFSADRPNVQDQLQVERLQHTYVEALHAYVSIHHPHDRLMFPRMLMKLVSLRTLSSVHSEQVFALRLQDKKLPPLLSEIWDVHE
modifications: lipogenic agonists (average)
B5: LXRβ LBD (protein)
chain: AQELMIQQLVAAQLQCNKRSFSDQPKVTPWPLGADPQSRDARQQRFAHFTELAIISVQEIVDFAKQVPGFLQLGREDQIALLKASTIEIMLLETARRYNHETECITFLKDFTYSKDDFHRAGLQVEFINPIFEFSRAMRRLGLDDAEYALLIAINIFSADRPNVQEPGRVEALQQPYVEALLSYTRIKRPQDQLRFPRMLMKLVSLRTLSSVHSEQVFALRLQDKKLPPLLSEIWDVHE
modifications: 24,25EC
B6: LXRβ LBD (protein)
chain: AQELMIQQLVAAQLQCNKRSFSDQPKVTPWPLGADPQSRDARQQRFAHFTELAIISVQEIVDFAKQVPGFLQLGREDQIALLKASTIEIMLLETARRYNHETECITFLKDFTYSKDDFHRAGLQVEFINPIFEFSRAMRRLGLDDAEYALLIAINIFSADRPNVQEPGRVEALQQPYVEALLSYTRIKRPQDQLRFPRMLMKLVSLRTLSSVHSEQVFALRLQDKKLPPLLSEIWDVHE
modifications: BMS-852927

Sequence of NCOR1 peptide (O75376 whole entry): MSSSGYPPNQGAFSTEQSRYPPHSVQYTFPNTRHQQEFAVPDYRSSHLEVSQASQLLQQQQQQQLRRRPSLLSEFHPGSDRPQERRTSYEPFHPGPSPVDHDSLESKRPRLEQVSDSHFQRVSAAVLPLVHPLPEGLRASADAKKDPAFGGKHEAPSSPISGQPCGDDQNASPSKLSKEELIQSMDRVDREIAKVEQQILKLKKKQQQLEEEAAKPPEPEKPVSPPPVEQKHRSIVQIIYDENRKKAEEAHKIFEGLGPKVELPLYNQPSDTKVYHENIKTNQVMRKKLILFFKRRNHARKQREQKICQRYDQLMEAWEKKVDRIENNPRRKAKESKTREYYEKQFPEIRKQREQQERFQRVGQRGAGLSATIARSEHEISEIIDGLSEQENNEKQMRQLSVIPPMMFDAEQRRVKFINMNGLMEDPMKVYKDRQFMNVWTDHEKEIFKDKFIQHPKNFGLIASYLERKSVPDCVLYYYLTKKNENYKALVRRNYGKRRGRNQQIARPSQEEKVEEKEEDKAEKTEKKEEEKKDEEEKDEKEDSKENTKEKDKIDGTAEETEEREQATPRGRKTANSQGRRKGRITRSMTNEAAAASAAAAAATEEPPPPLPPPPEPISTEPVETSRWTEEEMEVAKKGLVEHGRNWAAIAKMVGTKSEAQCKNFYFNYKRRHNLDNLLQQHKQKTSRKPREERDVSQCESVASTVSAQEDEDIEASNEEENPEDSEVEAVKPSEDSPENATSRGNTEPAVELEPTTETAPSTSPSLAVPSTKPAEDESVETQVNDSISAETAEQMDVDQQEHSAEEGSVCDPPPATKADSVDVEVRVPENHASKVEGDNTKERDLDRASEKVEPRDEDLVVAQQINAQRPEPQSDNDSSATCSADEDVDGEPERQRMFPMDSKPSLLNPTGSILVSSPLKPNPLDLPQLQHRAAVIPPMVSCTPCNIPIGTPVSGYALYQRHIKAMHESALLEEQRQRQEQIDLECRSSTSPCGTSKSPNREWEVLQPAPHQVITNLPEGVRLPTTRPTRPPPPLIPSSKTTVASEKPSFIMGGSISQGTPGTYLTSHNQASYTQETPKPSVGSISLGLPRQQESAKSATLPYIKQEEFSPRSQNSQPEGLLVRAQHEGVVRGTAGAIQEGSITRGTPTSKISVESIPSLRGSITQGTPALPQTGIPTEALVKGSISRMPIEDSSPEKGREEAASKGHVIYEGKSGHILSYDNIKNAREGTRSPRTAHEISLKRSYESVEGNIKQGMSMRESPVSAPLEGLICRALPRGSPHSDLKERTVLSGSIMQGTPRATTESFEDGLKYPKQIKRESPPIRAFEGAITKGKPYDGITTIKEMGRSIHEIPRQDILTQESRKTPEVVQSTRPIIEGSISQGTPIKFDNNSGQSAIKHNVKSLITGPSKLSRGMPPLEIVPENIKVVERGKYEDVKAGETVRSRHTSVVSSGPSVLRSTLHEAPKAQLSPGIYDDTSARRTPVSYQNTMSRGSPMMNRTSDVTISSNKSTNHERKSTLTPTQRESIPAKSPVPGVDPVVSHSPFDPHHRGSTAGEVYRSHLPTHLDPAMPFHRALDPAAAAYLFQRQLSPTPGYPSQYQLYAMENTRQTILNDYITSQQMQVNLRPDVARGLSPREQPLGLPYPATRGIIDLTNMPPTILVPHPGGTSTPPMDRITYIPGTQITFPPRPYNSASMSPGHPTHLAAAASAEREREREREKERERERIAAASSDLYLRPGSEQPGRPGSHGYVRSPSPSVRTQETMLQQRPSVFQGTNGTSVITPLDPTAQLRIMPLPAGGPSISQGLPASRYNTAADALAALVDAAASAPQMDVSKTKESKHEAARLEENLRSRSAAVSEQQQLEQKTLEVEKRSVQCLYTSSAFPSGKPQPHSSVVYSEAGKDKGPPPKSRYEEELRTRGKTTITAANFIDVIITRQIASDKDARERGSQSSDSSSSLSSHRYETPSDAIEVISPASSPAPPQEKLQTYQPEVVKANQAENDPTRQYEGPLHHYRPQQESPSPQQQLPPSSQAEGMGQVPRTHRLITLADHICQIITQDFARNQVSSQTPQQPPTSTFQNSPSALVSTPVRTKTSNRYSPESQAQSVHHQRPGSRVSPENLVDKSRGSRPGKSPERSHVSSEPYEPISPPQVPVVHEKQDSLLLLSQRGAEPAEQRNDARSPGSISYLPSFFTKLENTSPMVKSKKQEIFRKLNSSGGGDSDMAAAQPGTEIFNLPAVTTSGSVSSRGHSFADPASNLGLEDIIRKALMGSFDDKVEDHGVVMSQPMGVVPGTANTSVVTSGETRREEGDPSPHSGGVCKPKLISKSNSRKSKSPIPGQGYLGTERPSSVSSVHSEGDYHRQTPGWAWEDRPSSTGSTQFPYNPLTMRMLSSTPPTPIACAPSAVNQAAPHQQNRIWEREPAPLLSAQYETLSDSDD

One test has as its target NCOR1 peptide (Homo sapiens, UniProt O75376). Briefly: SPR.
A word on the Kd: it is the equilibrium constant for the complex coming apart. A low value points to a tighter complex. As for B1, binding was characterised by a dissociation constant (Kd) of 800 nM.

In turn, B2 had a dissociation constant (Kd) of 500 nM. This Kd lies about 1.6-fold lower than the previous one.

In a further test the target is SRC1 peptide (Homo sapiens, UniProt Q15788). The experiment in a line: SPR. In general terms: Surface plasmon resonance follows binding to a sensor surface in real time, without labels.
Sequence of SRC1 peptide (Q15788 2-1441): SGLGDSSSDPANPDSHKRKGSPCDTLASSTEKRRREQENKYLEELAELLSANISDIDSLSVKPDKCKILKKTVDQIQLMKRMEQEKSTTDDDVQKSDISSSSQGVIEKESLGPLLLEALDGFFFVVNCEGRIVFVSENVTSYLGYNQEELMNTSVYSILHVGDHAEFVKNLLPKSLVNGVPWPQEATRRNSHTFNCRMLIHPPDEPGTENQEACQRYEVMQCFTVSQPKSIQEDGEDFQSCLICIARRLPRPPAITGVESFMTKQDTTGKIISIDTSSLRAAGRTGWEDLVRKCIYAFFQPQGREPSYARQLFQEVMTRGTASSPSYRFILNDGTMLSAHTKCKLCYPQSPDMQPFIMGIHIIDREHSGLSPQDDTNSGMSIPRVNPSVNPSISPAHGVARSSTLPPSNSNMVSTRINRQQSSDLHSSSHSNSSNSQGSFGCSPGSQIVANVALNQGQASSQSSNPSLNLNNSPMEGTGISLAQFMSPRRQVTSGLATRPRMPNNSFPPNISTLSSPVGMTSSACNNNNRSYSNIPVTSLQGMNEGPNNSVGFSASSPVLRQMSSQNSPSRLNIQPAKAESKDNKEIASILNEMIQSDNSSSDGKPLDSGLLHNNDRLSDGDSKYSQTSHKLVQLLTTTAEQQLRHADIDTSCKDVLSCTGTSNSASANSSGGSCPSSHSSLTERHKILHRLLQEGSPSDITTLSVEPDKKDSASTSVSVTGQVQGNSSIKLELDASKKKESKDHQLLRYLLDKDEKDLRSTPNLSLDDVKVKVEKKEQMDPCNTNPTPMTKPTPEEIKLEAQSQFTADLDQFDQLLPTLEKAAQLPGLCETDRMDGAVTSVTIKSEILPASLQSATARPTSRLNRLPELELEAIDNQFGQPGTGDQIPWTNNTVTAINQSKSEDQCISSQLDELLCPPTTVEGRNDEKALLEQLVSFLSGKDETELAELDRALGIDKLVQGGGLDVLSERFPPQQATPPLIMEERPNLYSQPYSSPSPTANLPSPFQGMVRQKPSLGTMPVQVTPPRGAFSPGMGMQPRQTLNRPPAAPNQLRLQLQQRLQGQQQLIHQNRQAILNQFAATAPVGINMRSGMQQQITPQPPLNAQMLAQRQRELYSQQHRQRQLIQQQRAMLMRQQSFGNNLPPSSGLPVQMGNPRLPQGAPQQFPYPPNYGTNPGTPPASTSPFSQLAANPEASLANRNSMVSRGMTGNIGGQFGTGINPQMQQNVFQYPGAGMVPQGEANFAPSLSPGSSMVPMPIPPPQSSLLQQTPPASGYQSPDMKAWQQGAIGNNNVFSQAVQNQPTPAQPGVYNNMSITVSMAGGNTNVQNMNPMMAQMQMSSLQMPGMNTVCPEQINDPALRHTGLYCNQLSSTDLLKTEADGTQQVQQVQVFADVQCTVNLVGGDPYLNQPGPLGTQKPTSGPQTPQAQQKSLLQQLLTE
Regarding B3, the Kd amounted to 1500 nM.

Molecule B4 came in with a Kd of 1200 nM. The Kd values of the last two molecules are within 1.5-fold of each other.

For B5, the Kd came out at 2500 nM. Compared with the last molecule, the Kd is about 2.1-fold higher.

With B6, binding was put at a Kd of 19800 nM.
